Results on 15 molecules are retold here after US20060257938A1, “Method of screening for drugs that block ligand binding to a lipid binding protein” (priority 2005, published 2006).

Holding throughout (format): binding
A short description of experiment [1]: Probe fluorescence ratio response to arachidonic acid relative to ADIFAB2. The conditions noted are these: arachidonic acid; response relative to ADIFAB2. The essentials:
(§1)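 Fluorescently labeled rat intestinal FABP variants were read at two emission wavelengths, near the unbound maximum (about 420 to 480 nm) and the FFA-bound maximum (about 495 to 580 nm). R = Fλ1/Fλ2 after subtracting probe-free intensity; ΔR = R+agent − R0, normalized to ADIFAB2 (rI-FABP-L72A).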

The nature of experiment [2]: Probe fluorescence ratio response to linolenic acid relative to ADIFAB2. The conditions noted are these: response relative to ADIFAB2. The essentials: as §1
Experiment [3] in a line: Probe fluorescence ratio response to linoleic acid relative to ADIFAB2. The conditions noted are these: response relative to ADIFAB2. The essentials:
as §1

A short description of experiment [4]: Probe fluorescence ratio response to oleic acid relative to ADIFAB2. As to conditions: response relative to ADIFAB2. An outline of the steps: as §1
Experiment [5] can be described thus: Probe fluorescence ratio response to palmitic acid relative to ADIFAB2. The conditions noted are these: response relative to ADIFAB2. The essentials: as §1

B1: 106I, 72A (protein, listed as Rattus norvegicus)
chain: AFDGTWKVDRNENYEKFMEKMGINVVKRKLGAHDNLKLTITQEGNKFTVKESSNFRNIDVVFELGVDFAYSAADGTELTGTWTMEGNKLVGKFKRVDNGKELIAVIEISGNELIQTYTYEGVEAKRIFKKE
modifications: PEPTIDE (1)...(131) wild-type rat intestinal fatty acid binding protein
For the molecule B1, the “DR/DR AA” value in experiment [1] is given as 0.481. For the same molecule, the “DR/DR LNA” value in experiment [2] came out at 0.624. Also, in experiment [3], the “DR/DR LA” value came out at 0.563. Moreover, the “DR/DR OA” value in experiment [4] came out at 0.661. Also, in experiment [5], the “DR/DR PA” value is recorded as 0.223.

B2: 106L, 72A (protein, listed as Rattus norvegicus)
chain: AFDGTWKVDRNENYEKFMEKMGINVVKRKLGAHDNLKLTITQEGNKFTVKESSNFRNIDVVFELGVDFAYSAADGTELTGTWTMEGNKLVGKFKRVDNGKELIAVLEISGNELIQTYTYEGVEAKRIFKKE
modifications: PEPTIDE (1)...(131) wild-type rat intestinal fatty acid binding protein
As to B2, the “DR/DR AA” value in experiment [1] was 0.383. Further, the “DR/DR LNA” value in experiment [2] was 0.364. Also, in experiment [3], the “DR/DR LA” value amounted to 0.382. In experiment [4], the “DR/DR OA” value is given as 0.431. Moreover, in experiment [5], the “DR/DR PA” value is on record as 0.183.

B3: 49N, 72A (protein, listed as Rattus norvegicus)
chain: AFDGTWKVDRNENYEKFMEKMGINVVKRKLGAHDNLKLTITQEGNKFTNKESSNFRNIDVVFELGVDFAYSAADGTELTGTWTMEGNKLVGKFKRVDNGKELIAVREISGNELIQTYTYEGVEAKRIFKKE
modifications: PEPTIDE (1)...(131) wild-type rat intestinal fatty acid binding protein
For the molecule B3, the “DR/DR AA” value in experiment [1] is recorded as 1.255. Further, the “DR/DR LNA” value in experiment [2] stood at 1.181. Also, in experiment [3], the “DR/DR LA” value is on record as 1.099. In experiment [4], the “DR/DR OA” value worked out at 1.108. For the same molecule, in experiment [5], the “DR/DR PA” value was determined as 0.740.

B4: 14I 38I 72V (protein, listed as Rattus norvegicus)
chain: AFDGTWKVDRNENIEKFMEKMGINVVKRKLGAHDNLKITITQEGNKFTVKESSNFRNIDVVFELGVDFAYSVADGTELTGTWTMEGNKLVGKFKRVDNGKELIAVREISGNELIQTYTYEGVEAKRIFKKE
modifications: PEPTIDE (1)...(131) wild-type rat intestinal fatty acid binding protein
With B4, in experiment [1], the “DR/DR AA” value was determined as 0.715. The “DR/DR LNA” value in experiment [2] came to 0.926. The “DR/DR LA” value in experiment [3] came out at 0.862. Also, the “DR/DR OA” value in experiment [4] is 0.398. The “DR/DR PA” value in experiment [5] is recorded as 0.844.

B5: 14L 38M 72A 117F (protein, listed as Rattus norvegicus)
chain: AFDGTWKVDRNENLEKFMEKMGINVVKRKLGAHDNLKMTITQEGNKFTVKESSNFRNIDVVFELGVDFAYSAADGTELTGTWTMEGNKLVGKFKRVDNGKELIAVREISGNELIQTFTYEGVEAKRIFKKE
modifications: PEPTIDE (1)...(131) wild-type rat intestinal fatty acid binding protein
In the case of B5, the “DR/DR AA” value in experiment [1] is listed as 0.861. Moreover, the “DR/DR LNA” value in experiment [2] was found to be 0.921. For the same molecule, the “DR/DR LA” value in experiment [3] turned out to be 0.830. In experiment [4], the “DR/DR OA” value is recorded as 0.458. The “DR/DR PA” value in experiment [5] is 0.472.

B6: 14L 72A (protein, listed as Rattus norvegicus)
chain: AFDGTWKVDRNENLEKFMEKMGINVVKRKLGAHDNLKLTITQEGNKFTVKESSNFRNIDVVFELGVDFAYSAADGTELTGTWTMEGNKLVGKFKRVDNGKELIAVREISGNELIQTYTYEGVEAKRIFKKE
modifications: PEPTIDE (1)...(131) wild-type rat intestinal fatty acid binding protein
As to B6, in experiment [1], the “DR/DR AA” value turned out to be 0.838. In addition, the “DR/DR LNA” value in experiment [2] was 0.867. For the same molecule, the “DR/DR LA” value in experiment [3] was determined as 0.766. For the same molecule, the “DR/DR OA” value in experiment [4] was 0.446. Moreover, in experiment [5], the “DR/DR PA” value amounted to 0.534.

B7: 38M 72G 117F (protein, listed as Rattus norvegicus)
chain: AFDGTWKVDRNENYEKFMEKMGINVVKRKLGAHDNLKMTITQEGNKFTVKESSNFRNIDVVFELGVDFAYSGADGTELTGTWTMEGNKLVGKFKRVDNGKELIAVREISGNELIQTFTYEGVEAKRIFKKE
modifications: PEPTIDE (1)...(131) wild-type rat intestinal fatty acid binding protein
For the molecule B7, the “DR/DR AA” value in experiment [1] stood at 1.280. Further, in experiment [2], the “DR/DR LNA” value is 0.733. The “DR/DR LA” value in experiment [3] came out at 0.748. The “DR/DR OA” value in experiment [4] is recorded as 0.686. In addition, the “DR/DR PA” value in experiment [5] was 0.438.

B8: 106A, 72A (protein, listed as Rattus norvegicus)
chain: AFDGTWKVDRNENYEKFMEKMGINVVKRKLGAHDNLKLTITQEGNKFTVKESSNFRNIDVVFELGVDFAYSAADGTELTGTWTMEGNKLVGKFKRVDNGKELIAVAEISGNELIQTYTYEGVEAKRIFKKE
modifications: PEPTIDE (1)...(131) wild-type rat intestinal fatty acid binding protein
Take B8: the “DR/DR AA” value in experiment [1] was 0.389. For the same molecule, in experiment [2], the “DR/DR LNA” value worked out at 0.518. In addition, the “DR/DR LA” value in experiment [3] worked out at 0.515. In experiment [4], the “DR/DR OA” value is given as 0.596. Moreover, in experiment [5], the “DR/DR PA” value was 0.164.

B9: 14I 72A (protein, listed as Rattus norvegicus)
chain: AFDGTWKVDRNENIEKFMEKMGINVVKRKLGAHDNLKLTITQEGNKFTVKESSNFRNIDVVFELGVDFAYSAADGTELTGTWTMEGNKLVGKFKRVDNGKELIAVREISGNELIQTYTYEGVEAKRIFKKE
modifications: PEPTIDE (1)...(131) wild-type rat intestinal fatty acid binding protein
As to B9, the “DR/DR AA” value in experiment [1] amounted to 0.825. Also, the “DR/DR LNA” value in experiment [2] was 0.997. Moreover, the “DR/DR LA” value in experiment [3] was 0.944. Besides, the “DR/DR OA” value in experiment [4] is recorded as 0.478. In experiment [5], the “DR/DR PA” value is reported as 0.762.

B10: 106V, 72A (protein, listed as Rattus norvegicus)
chain: AFDGTWKVDRNENYEKFMEKMGINVVKRKLGAHDNLKLTITQEGNKFTVKESSNFRNIDVVFELGVDFAYSAADGTELTGTWTMEGNKLVGKFKRVDNGKELIAVVEISGNELIQTYTYEGVEAKRIFKKE
modifications: PEPTIDE (1)...(131) wild-type rat intestinal fatty acid binding protein
Regarding B10, the “DR/DR AA” value in experiment [1] turned out to be 0.398. For the same molecule, in experiment [2], the “DR/DR LNA” value came out at 0.592. In addition, in experiment [3], the “DR/DR LA” value was 0.574. Also, in experiment [4], the “DR/DR OA” value was 0.657. Besides, in experiment [5], the “DR/DR PA” value was found to be 0.191.

B11: 106S, 72A (protein, listed as Rattus norvegicus)
chain: AFDGTWKVDRNENYEKFMEKMGINVVKRKLGAHDNLKLTITQEGNKFTVKESSNFRNIDVVFELGVDFAYSAADGTELTGTWTMEGNKLVGKFKRVDNGKELIAVSEISGNELIQTYTYEGVEAKRIFKKE
modifications: PEPTIDE (1)...(131) wild-type rat intestinal fatty acid binding protein
For B11, the “DR/DR AA” value in experiment [1] is 0.321. Further, the “DR/DR LNA” value in experiment [2] turned out to be 0.403. The “DR/DR LA” value in experiment [3] is 0.355. For the same molecule, the “DR/DR OA” value in experiment [4] is given as 0.478. Also, the “DR/DR PA” value in experiment [5] is given as 0.149.

B12: 11Y, 72A (protein, listed as Rattus norvegicus)
chain: AFDGTWKVDRYENYEKFMEKMGINVVKRKLGAHDNLKLTITQEGNKFTVKESSNFRNIDVVFELGVDFAYSAADGTELTGTWTMEGNKLVGKFKRVDNGKELIAVREISGNELIQTYTYEGVEAKRIFKKE
modifications: PEPTIDE (1)...(131) wild-type rat intestinal fatty acid binding protein
As to B12, the “DR/DR AA” value in experiment [1] is 0.516. The “DR/DR LNA” value in experiment [2] stood at 0.311. Besides, in experiment [3], the “DR/DR LA” value amounted to 0.330. In addition, the “DR/DR OA” value in experiment [4] is 0.156. Moreover, the “DR/DR PA” value in experiment [5] is recorded as 0.296.

B13: 11I, 72A (protein, listed as Rattus norvegicus)
chain: AFDGTWKVDRIENYEKFMEKMGINVVKRKLGAHDNLKLTITQEGNKFTVKESSNFRNIDVVFELGVDFAYSAADGTELTGTWTMEGNKLVGKFKRVDNGKELIAVREISGNELIQTYTYEGVEAKRIFKKE
modifications: PEPTIDE (1)...(131) wild-type rat intestinal fatty acid binding protein
Take B13: the “DR/DR AA” value in experiment [1] turned out to be 0.584. In addition, the “DR/DR LNA” value in experiment [2] is 0.507. Also, in experiment [3], the “DR/DR LA” value is 0.546. The “DR/DR OA” value in experiment [4] came out at 0.387. In experiment [5], the “DR/DR PA” value is listed as 1.186.

B14: 106N, 72A (protein, listed as Rattus norvegicus)
chain: AFDGTWKVDRNENYEKFMEKMGINVVKRKLGAHDNLKLTITQEGNKFTVKESSNFRNIDVVFELGVDFAYSAADGTELTGTWTMEGNKLVGKFKRVDNGKELIAVNEISGNELIQTYTYEGVEAKRIFKKE
modifications: PEPTIDE (1)...(131) wild-type rat intestinal fatty acid binding protein
On to B14, for which the “DR/DR AA” value in experiment [1] worked out at 0.384. The “DR/DR LNA” value in experiment [2] is given as 0.445. The “DR/DR LA” value in experiment [3] worked out at 0.451. Moreover, in experiment [4], the “DR/DR OA” value is on record as 0.496. Further, the “DR/DR PA” value in experiment [5] came to 0.152.

B15: 106T, 72A (protein, listed as Rattus norvegicus)
chain: AFDGTWKVDRNENYEKFMEKMGINVVKRKLGAHDNLKLTITQEGNKFTVKESSNFRNIDVVFELGVDFAYSAADGTELTGTWTMEGNKLVGKFKRVDNGKELIAVTEISGNELIQTYTYEGVEAKRIFKKE
modifications: PEPTIDE (1)...(131) wild-type rat intestinal fatty acid binding protein
For the molecule B15, in experiment [1], the “DR/DR AA” value was 0.250. In addition, the “DR/DR LNA” value in experiment [2] was determined as 0.367. The “DR/DR LA” value in experiment [3] came out at 0.246. The “DR/DR OA” value in experiment [4] amounted to 0.434. Moreover, the “DR/DR PA” value in experiment [5] stood at 0.118.
